# Results: patent US20210002376A1 (UNIVERSIT T STUTTGART, published 2021)
# B1: DbTNFR2xTNFR2-Ig (antibody, human IgG1, kappa)
# heavy: QVQLQQSGAEVKKPGSAVKVSCKASGGTFSSYAISWVRQAPGQGLEWMGRIIPILGIANYAQKFQGRVTITADKSTSTAYMELSSLRSEDTAVYYCARDGLGDAFDIWGQGTMVTVSSGGGGSQSALTQPRSVSGSPGQSITISCTGTSSDVGGYNYVSWYQQHPGKAPKLMIYDVSNRPSGVSNRFSGSKSGNTASLTISGLQAEDEADYYCSSYTSSSTLVVFGGGTKLTVLASTKGPSVFPLAPSSKSTSGGTAALGCLVKDYFPEPVTVSWNSGALTSGVHTFPAVLQSSGLYSLSSVVTVPSSSLGTQTYICNVNHKPSNTKVDKKVEPKSCDKTHTCPPCPAPPVAGPSVFLFPPKPKDTLMISRTPEVTCVVVDVSHEDPEVKFNWYVDGVEVHNAKTKPREEQYNSTYRVVSVLTVLHQDWLNGKEYKCKVSNKGLPSSIEKTISKAKGQPREPQVYTLPPSRDELTKNQVSLTCLVKGFYPSDIAVEWESNGQPENNYKTTPPVLDSDGSFFLYSKLTVDKSRWQQGNVFSCSVMHEALHNHYTQKSLSLSPGK
# light: QVQLQQSGAEVKKPGSAVKVSCKASGGTFSSYAISWVRQAPGQGLEWMGRIIPILGIANYAQKFQGRVTITADKSTSTAYMELSSLRSEDTAVYYCARDGLGDAFDIWGQGTMVTVSSGGGGSQSALTQPRSVSGSPGQSITISCTGTSSDVGGYNYVSWYQQHPGKAPKLMIYDVSNRPSGVSNRFSGSKSGNTASLTISGLQAEDEADYYCSSYTSSSTLVVFGGGTKLTVLRTVAAPSVFIFPPSDEQLKSGTASVVCLLNNFYPREAKVQWKVDNALQSGNSQESVTEQDSKDSTYSLSSTLTLSKADYEKHKVYACEVTHQGLSSPVTKSFNRGEC
# notes: variable domains originate from IgG15
# Tests used:
# [1] = molecular target: T1, TNFR2 (on Kym-1 cells) (UniProt P20333 23-461, limits assumed); test: cell-based or functional assay
# T1 sequence (looked up): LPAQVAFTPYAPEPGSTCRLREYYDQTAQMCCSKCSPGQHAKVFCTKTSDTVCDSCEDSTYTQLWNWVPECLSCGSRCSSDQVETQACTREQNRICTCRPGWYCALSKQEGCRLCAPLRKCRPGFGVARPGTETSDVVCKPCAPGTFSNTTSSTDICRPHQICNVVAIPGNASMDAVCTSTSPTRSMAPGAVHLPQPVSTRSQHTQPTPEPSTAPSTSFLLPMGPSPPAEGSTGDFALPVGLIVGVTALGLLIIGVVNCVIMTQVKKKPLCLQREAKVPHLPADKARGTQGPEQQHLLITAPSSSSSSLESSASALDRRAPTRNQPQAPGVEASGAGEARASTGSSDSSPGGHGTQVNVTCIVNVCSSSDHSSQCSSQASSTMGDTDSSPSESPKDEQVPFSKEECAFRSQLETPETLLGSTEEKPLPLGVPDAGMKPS
# [2] = molecular target: T2, TNFR2-Fc (Enbrel) fusion protein (UniProt P20333 23-257); test: ELISA, coated TNFR2-Fc (Enbrel), anti-human Fab-HRP
# T2 construct: extracellular domain; Commercial product (Enbrel) used as coated antigen
# T2 sequence (looked up): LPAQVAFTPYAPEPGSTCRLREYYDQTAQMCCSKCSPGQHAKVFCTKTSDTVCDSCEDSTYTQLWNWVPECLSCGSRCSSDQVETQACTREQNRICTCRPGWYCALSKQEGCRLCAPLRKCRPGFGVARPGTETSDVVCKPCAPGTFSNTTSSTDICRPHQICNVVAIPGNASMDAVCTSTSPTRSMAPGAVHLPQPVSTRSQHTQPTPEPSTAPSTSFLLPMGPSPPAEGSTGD
# [3] = molecular target: T3, TNFR1-Fc fusion protein (UniProt P19438 29-197); test: ELISA, coated TNFR1-Fc, anti-human Fab-HRP
# T3 construct: range 29-197; Coated antigen in ELISA; not shown: Fc part of the fusion, not described
# T3 sequence (looked up): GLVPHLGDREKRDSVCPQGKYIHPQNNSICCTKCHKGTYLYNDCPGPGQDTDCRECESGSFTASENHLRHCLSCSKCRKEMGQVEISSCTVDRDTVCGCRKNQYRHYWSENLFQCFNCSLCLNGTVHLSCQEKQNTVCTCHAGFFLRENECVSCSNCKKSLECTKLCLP
binder,measurement,setting,value
B1,"EC50 of cell death induction, Kym-1 cells, MTT assay after 24 hours",[1],~0.056 nM
same,fold increase of bioactivity against the bivalent antibody,[1],~500 fold
same,EC50,[2],0.7 nM
same,binding result,[3],no binding
